Measured values taken from patent US20250034527A1 (Stanford University, published 2025).

Key:
Fzd7 CRD [1] = target: T1, Fzd7 CRD (human, UniProt O75084 44-163); assay: SPR, biotinylated Fzd CRD captured on SA chip, DFB as analyte; SPR, Fzd7
Experimental: (§1) Second, individual DFB proteins were purified and surface Plasmon Resonance (SPR) used to measure the affinity between Fzd CRD with the DFB. The biotinylated Fzd CRD was captured on SA sensor chip at low density. A gradient concentration of DFB analyte was flown over the chip. The data was analyzed by BIACore accompanying software.

Fzd8 CRD [2] = target: T2, Fzd8 CRD (human, UniProt Q9H461 30-151, limits assumed, biotinylated); assay: SPR, biotinylated Fzd CRD captured on SA chip, DFB as analyte; SPR, Fzd8
T2 construct: domain: CRD; Species 'human' comes from the specificity statements; also called Fz8; frizzled 8 cysteine rich domain
T2 sequence (looked up): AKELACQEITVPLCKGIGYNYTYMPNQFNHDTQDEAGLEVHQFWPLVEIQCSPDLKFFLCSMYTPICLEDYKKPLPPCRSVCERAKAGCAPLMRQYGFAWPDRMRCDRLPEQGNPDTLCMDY
Experimental: as §1

Fzd7 CRD [3] = target: T1, Fzd7 CRD; assay: SPR: biotinylated Fzd7 CRD captured on an SA chip, 1AF34 as analyte, 63 nM down to 0.24 nM
Experimental: as §1

Fzd1 CRD [4] = target: T3, Fzd1 CRD (human, UniProt Q9UP38 111-230); assay: yeast surface display of DFB, titration with biotinylated Fzd CRD, flow cytometry; yeast titration, Fz1
Description: (§2) To understand the affinity of individual DFBs towards different Fzd CRDs, two different methods were used to measure the specificity and affinity. DFBs were expressed on yeast surface and the yeast stained with biotinylated Fzd CRDs. The cells were washed and Streptavidin, Alexa Fluor™ 647 conjugates were used to stain the yeasts. The fluorescence signals were read on flow cytometry.

Fzd2 CRD [5] = target: T4, Fzd2 CRD (human, UniProt Q14332 34-153); assay: yeast surface display of DFB, titration with biotinylated Fzd CRD, flow cytometry; yeast titration, Fz2
Description: as §2

Fzd7 CRD [6] = target: T1, Fzd7 CRD; assay: yeast surface display of DFB, titration with biotinylated Fzd CRD, flow cytometry; yeast titration, Fz7
Description: as §2

Fzd7 CRD [7] = target: T1, Fzd7 CRD; assay: SPR, biotinylated Fzd CRD captured on SA chip, DFB as analyte
Experimental: as §1

Fzd5 CRD [8] = target: T5, Fzd5 CRD (human, UniProt Q13467 28-150, limits assumed, biotinylated); assay: yeast surface display titration with biotinylated Fzd CRD, flow cytometry
T5 construct: domain: CRD; Species 'human' comes from the specificity statements; also called Fz5; frizzled 5 cysteine rich domain
T5 sequence (looked up): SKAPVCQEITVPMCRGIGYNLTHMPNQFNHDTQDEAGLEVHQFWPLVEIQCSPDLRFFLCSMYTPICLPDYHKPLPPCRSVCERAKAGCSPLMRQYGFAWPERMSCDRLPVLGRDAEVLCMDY

Fzd8 CRD [9] = target: T2, Fzd8 CRD; assay: SPR: biotinylated Fzd8 CRD captured on an SA chip, 1AF34F7 as analyte, 1 uM down to 0.24 nM
Experimental: as §1

Fzd8 CRD [10] = target: T2, Fzd8 CRD; assay: SPR, biotinylated Fzd CRD captured on SA chip, DFB as analyte
Experimental: as §1

Fzd8 CRD [11] = target: T2, Fzd8 CRD; assay: yeast surface display of DFB, titration with biotinylated Fzd CRD, flow cytometry
Description: as §2

Fzd5 CRD [12] = target: T5, Fzd5 CRD; assay: as above
Description: as §2

Fzd1 CRD [13] = target: T3, Fzd1 CRD; assay: yeast surface display of ANK12, staining with biotinylated Fzd CRD and streptavidin-Alexa Fluor 647, flow cytometry
Description: as §2

Fzd2 CRD [14] = target: T4, Fzd2 CRD; assay: as above
Description: as §2

Fzd4 CRD [15] = target: T6, Fzd4 CRD (human, UniProt Q9ULV1 40-161, limits assumed, biotinylated); assay: as above
T6 construct: domain: CRD; also called Fz4; frizzled 4 cysteine rich domain
T6 sequence (looked up): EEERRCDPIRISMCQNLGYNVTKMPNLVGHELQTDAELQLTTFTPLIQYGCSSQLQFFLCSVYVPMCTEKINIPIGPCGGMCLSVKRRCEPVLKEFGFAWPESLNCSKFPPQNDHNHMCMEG
Description: as §2

Fzd7 CRD [16] = target: T1, Fzd7 CRD; assay: as above
Description: as §2

Fzd4 CRD [17] = target: T6, Fzd4 CRD; assay: SPR, biotinylated Fzd CRD captured on SA chip, DFB as analyte
Experimental: as §1

Fzd4 CRD [18] = target: T6, Fzd4 CRD; assay: yeast surface display of DFB, titration with biotinylated Fzd CRD, flow cytometry
Description: as §2

Fzd1 CRD [19] = target: T3, Fzd1 CRD; assay: yeast surface display of 4AF30, staining with biotinylated Fzd CRD and streptavidin-Alexa Fluor 647, flow cytometry
Description: as §2

Fzd2 CRD [20] = target: T4, Fzd2 CRD; assay: as above
Description: as §2

Fzd5 CRD [21] = target: T5, Fzd5 CRD; assay: as above
Description: as §2

B1: 1AF34 (designed binder)
chain: SELGTRLIRAALDGNKDRVKDLIENGADVNASLMSGATPLHAAAMNGHKEVVKLLISKGADVNAQSVAGSTPLDAAAFSGHKEVVKLLISKGADVNAVNAAGLTPLHAAADNGHKEVVKLLISKGADVNAKADHGMTPLHFAAQRGHKEVVKLLISKGADLNTSAKDGATPLDMARESGNEEVVKLLEKQLE
notes: Engineered ankyrin-repeat protein; Display fusion and tags are not described; also called DFB
For B1, the Kd (Fzd7 CRD [1]) was 1 nM, the Kd (Fzd8 CRD [2]) was 23 nM and the Kd (Fzd7 CRD [3]) was 1.3 nM. The EC50 (Fzd1 CRD [4]) was 19 nM, the EC50 (Fzd2 CRD [5]) was 31.6 nM and the EC50 (Fzd7 CRD [6]) was 5.6 nM.

B2: 1AF34F7 (designed binder)
chain: SELGTRLIRAALDGNKDRVKDLIENGADVNASLMSGATPLHAAAMNGHKEVVKLLISKGADVNAQSVAGSTPLDAAAFSGHKEVVKLLISKGADVNAVNAAGLTPLHDAADDGHNEVVKLLISKGADVNAKADHGMTPLHFAAQRGHKEVVKLLISKGADLNTSAKDGATPLDMARESGNEEVVKLLEKQLE
notes: as for B1
B2 was tested, and the Kd (Fzd7 CRD [7]) was 1.6 nM, the binding result (Fzd5 CRD [8]) was “no binding (tested: 1 µM)” and the Kd (Fzd8 CRD [9]) was 2600 nM. The EC50 (Fzd1 CRD [4]) was 7.5 nM, the EC50 (Fzd2 CRD [5]) was 9.9 nM and the EC50 (Fzd7 CRD [6]) was 1.8 nM.

B3: ANK12 (designed binder)
chain: SELGKRLIMAALDGNKDRVKDLIENGADVNASLVSGATPLHAAAMNGHKEVVKLLISKGADVNAQSAAGSTPLAAAAINGHKEVVKLLISKGADVNAVTAAGMTPLHAAAANGHKEVVKLLISKGADVNAKADRGMTPLHFAAWRGHKEVVKLLISKGADLNTSAKDGATPLDMARESGNEEVVKLLEKQLE
notes: as for B1
Binder B3 has a Kd (Fzd8 CRD [10]) of 0.2 nM, an EC50 (Fzd8 CRD [11]) of 3.6 nM and an EC50 (Fzd5 CRD [12]) of 4.4 nM. B3: no binding (tested: 1000 nM) (Fzd1 CRD [13]); no binding (tested: 1000 nM) (Fzd2 CRD [14]); no binding (tested: 1000 nM) (Fzd4 CRD [15]). B3: no binding (tested: 1000 nM) (Fzd7 CRD [16]).

B4: 4AF30 (designed binder)
chain: SELGKRLIRAALDGNKDRVKDLIENGADVNASLMSGTTPLYAAAMNGHKEVVKLLISKGADVNAQSVAGSTPLVAAANFGHNEVVKLLISKGADVNAVTAFGVTPLHAAAADGHKEVVKLLISKGADVNAKAGRGMTPLHIAAFRGHKEVVKLLISKGADLNTSAKDGATPLDMARESGNEEVVKLLEKQLE
notes: as for B1
With B4 the Kd (Fzd8 CRD [10]) was 400 nM, the Kd (Fzd4 CRD [17]) was 1.4 nM and the EC50 (Fzd4 CRD [18]) was 1.6 nM. B4: no binding (tested: 1000 nM) (Fzd1 CRD [19]); no binding (tested: 1000 nM) (Fzd2 CRD [20]); no binding (tested: 1000 nM) (Fzd5 CRD [21]).
